Here are results for one molecule from article doi:10.1101/2023.07.29.551094.

The test deals with TslA lipase domain, purified (S. aureus). The experiment in a line: ITC.

B1: TilA (SAOUHSC_00405) lacking its signal sequence, His tag removed (natural protein)
chain: CGNMKDEQKKEEQTNKTDSKEEQIKKSFAKTLDMYPIKNLEDLYDKEGYRDGEFKKGDKGTWTILTGFSKSNKPGVLDDEGMVLYLNRNTKKATGYYFVNKVYDDISKNHNEKKYRVELKNNKIVLLDNVEDKKLKQKIENFKFFSQYADFKDLKNYQDGNITTNENVPSYEAQYKMNNSDKNVKKLREIYPITTNNSPNLKLYIDGDIKGSSVGYKKIEYKFSKDKGQETTLRDYLNFGPSEGENVE
A word on the Kd: it is the constant that tells how readily two partners part at equilibrium. The stoichiometry N is a count of units in the complex or per binding partner. On to B1, for which the dissociation constant (Kd) is 14.2 nM, the dH was -20.5 kcal/mol and the stoichiometry N is 0.88.
